Experimental data published in PMC11209935 (Cell, 2023).

Target: RPA1 (subunit of recombinant RPA and Alt-RPA) (human, UniProt P27694 1-616)
Test: mass photometry

Sequence of RPA1 (subunit of recombinant RPA and Alt-RPA) (P27694 whole entry): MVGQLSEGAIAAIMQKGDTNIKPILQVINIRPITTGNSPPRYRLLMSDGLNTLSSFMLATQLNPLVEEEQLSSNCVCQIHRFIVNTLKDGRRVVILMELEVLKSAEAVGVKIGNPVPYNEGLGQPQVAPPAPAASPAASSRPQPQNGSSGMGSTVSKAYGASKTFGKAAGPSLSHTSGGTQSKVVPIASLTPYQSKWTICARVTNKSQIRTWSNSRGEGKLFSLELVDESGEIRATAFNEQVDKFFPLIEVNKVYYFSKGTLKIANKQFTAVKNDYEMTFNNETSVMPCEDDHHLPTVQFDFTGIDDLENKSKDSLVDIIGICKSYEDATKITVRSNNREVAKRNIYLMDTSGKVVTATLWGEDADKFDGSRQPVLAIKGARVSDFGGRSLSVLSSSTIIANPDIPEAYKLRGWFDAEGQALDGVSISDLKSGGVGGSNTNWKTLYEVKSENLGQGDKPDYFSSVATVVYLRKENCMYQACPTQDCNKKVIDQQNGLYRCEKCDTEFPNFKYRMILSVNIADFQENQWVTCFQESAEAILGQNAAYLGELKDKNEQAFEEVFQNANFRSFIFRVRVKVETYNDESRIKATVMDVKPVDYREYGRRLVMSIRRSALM

B1: RPA4 (subunit of recombinant Alt-RPA) (natural protein, human, UniProt Q13156 1-261, looked up)
chain: MSKSGFGSYGSISAADGASGGSDQLCERDATPAIKTQRPKVRIQDVVPCNVNQLLSSTVFDPVFKVRGIIVSQVSIVGVIRGAEKASNHICYKIDDMTAKPIEARQWFGREKVKQVTPLSVGVYVKVFGILKCPTGTKSLEVLKIHVLEDMNEFTVHILETVNAHMMLDKARRDTTVESVPVSPSEVNDAGDNDESHRNFIQDEVLRLIHECPHQEGKSIHELRAQLCDLSVKAIKEAIDYLTVEGHIYPTVDREHFKSAD
binding result: binds
